Measurements taken from the supplement of paper PMC10724198.
± gives the standard deviation of the averaged measurements.

Columns and labels:
Saccharomyces cerevisiae [1] = assay: protein stability index of tFT-peptide fusion (C-terminal peptide) (PSI (0-1 scale)); higher = more stable (slower turnover); conditions: genetic background: wild type; temperature: 30 C
Saccharomyces cerevisiae [2] = assay: as above
Method: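 MPS profiling in S. cerevisiae of the tFT-X12 degron library: putative degron peptides plus stable controls, 12 aa, fused to the C-terminus of a sfGFP-mCherry timer. Cells are FACS-sorted into 8 mCherry/sfGFP bins and deep-sequenced. PSI runs from 0 (unstable) to 1 (stable). Backgrounds are wild type, das1Δ and doa10Δ at 30 °C, and wild type, das1Δ, cdc34-1 and cdc53-1 at 37 °C; 2-3 technical replicates each.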

[3] = genetic background: cdc34-1, temperature: 37 C
[4] = genetic background: cdc53-1, temperature: 37 C
[5] = genetic background: das1 deletion, temperature: 30 C
[6] = genetic background: das1 deletion, temperature: 37 C
[7] = genetic background: doa10 deletion, temperature: 30 C
[8] = genetic background: wild type, temperature: 30 C
[9] = genetic background: wild type, temperature: 37 C
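Note: PSI is a weighted mean of sequencing reads over stability bins, variants kept only with over 10 reads, mCherry proximal and sfGFP distal, peptide attached via GGGS linker.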

| Sequence | protein stability index (Saccharomyces cerevisiae [1]) | protein stability index (Saccharomyces cerevisiae [2]; [3]) | protein stability index (Saccharomyces cerevisiae [2]; [4]) | protein stability index (Saccharomyces cerevisiae [2]; [5]) | protein stability index (Saccharomyces cerevisiae [2]; [6]) | protein stability index (Saccharomyces cerevisiae [2]; [7]) | protein stability index (Saccharomyces cerevisiae [2]; [8]) | protein stability index (Saccharomyces cerevisiae [2]; [9]) |
| --- | --- | --- | --- | --- | --- | --- | --- | --- |
| FFVEFFLLCFCS | 0.476 ± 0.0053 | 0.497 ± 0.023 | 0.498 ± 0.024 | 0.463 ± 0.057 | 0.503 ± 0.036 | 0.476 ± 0.0075 | 0.472 ± 0.019 | 0.515 ± 0.033 |
| FFVSFFFFLWLV | 0.228 ± 0.0027 | 0.204 ± 0.011 | 0.181 ± 0.024 | 0.204 ± 0.011 | 0.261 ± 0.014 | 0.278 ± 0.038 | 0.161 ± 0.018 | 0.189 ± 0.015 |
| FGFFDIKLPVVA | 0.486 ± 0.018 | 0.515 ± 0.037 | 0.51 ± 0.022 | 0.38 ± 0.024 | 0.5539 ± 0.0013 | 0.345 ± 0.012 | 0.373 ± 0.041 | 0.518 ± 0.017 |
| FGVECDLCLFCC | 0.376 ± 0.018 | 0.617 ± 0.07 | 0.6837 ± 0.0031 | 0.572 ± 0.0088 | 0.692 ± 0.03 | 0.2392 ± 0.0022 | 0.257 ± 0.014 | 0.46 ± 0.015 |
| FGVVRVSIPVGV | 0.368 ± 0.012 | 0.211 ± 0.024 | 0.203 ± 0.02 | 0.227 ± 0.038 | 0.3584 ± 0.0023 | 0.184 ± 0.005 | 0.233 ± 0.024 | 0.316 ± 0.007 |
| FIFCLSCGVWGG | 0.414 ± 0.02 | 0.5052 ± 0.0007 | 0.583 ± 0.027 | 0.478 ± 0.039 | 0.593 ± 0.023 | 0.49 ± 0.026 | 0.466 ± 0.012 | 0.5582 ± 0.0053 |
| FILLFGFSHWVW | 0.4316 ± 0.0023 | 0.449 ± 0.033 | 0.523 ± 0.023 | 0.375 ± 0.028 | 0.5333 ± 0.0017 | 0.364 ± 0.019 | 0.37 ± 0.03 | 0.476 ± 0.036 |
| FILLTLVFGCAS | 0.309 ± 0.025 | 0.188 ± 0.0054 | 0.313 ± 0.025 | 0.228 ± 0.02 | 0.424 ± 0.0066 | 0.196 ± 0.0089 | 0.22 ± 0.035 | 0.375 ± 0.0071 |
| FLAFLEPRVCCA | 0.343 ± 0.013 | 0.23 ± 0.037 | 0.231 ± 0.036 | 0.246 ± 0.019 | 0.354 ± 0.0058 | 0.21 ± 0.0091 | 0.228 ± 0.031 | 0.33 ± 0.029 |
| FLAFSYIRLLFF | 0.237 ± 0.012 | 0.468 ± 0.05 | 0.463 ± 0.019 | 0.454 ± 0.026 | 0.6128 ± 0.0054 | 0.135 ± 0.017 | 0.122 ± 0.023 | 0.178 ± 0.031 |
| FLCWLSFIPLLS | 0.38 ± 0.02 | 0.203 ± 0.0093 | 0.164 ± 0.007 | 0.293 ± 0.034 | 0.366 ± 0.0095 | 0.418 ± 0.019 | 0.256 ± 0.017 | 0.32 ± 0.015 |
| FLFFCGWVSLFG | 0.424 ± 0.024 | 0.408 ± 0.024 | 0.4636 ± 0.0024 | 0.394 ± 0.033 | 0.4966 ± 0.0014 | 0.333 ± 0.0056 | 0.364 ± 0.023 | 0.479 ± 0.025 |
| FLFFMGVGVVLY | 0.295 ± 0.013 | 0.285 ± 0.032 | 0.382 ± 0.029 | 0.314 ± 0.025 | 0.452 ± 0.023 | 0.35 ± 0.039 | 0.325 ± 0.025 | 0.425 ± 0.0071 |
| FLFIFFFFLISF | 0.284 ± 0.018 | 0.208 ± 0.018 | 0.1806 ± 0.00038 | 0.256 ± 0.02 | 0.311 ± 0.027 | 0.344 ± 0.0055 | 0.242 ± 0.021 | 0.295 ± 0.011 |
| FLFLFLFPFSLI | 0.431 ± 0.0054 | 0.525 ± 0.047 | 0.571 ± 0.0084 | 0.476 ± 0.016 | 0.567 ± 0.009 | 0.393 ± 0.0097 | 0.386 ± 0.0079 | 0.4997 ± 0.0009 |
| FLIFGMVDFAVV | 0.331 ± 0.018 | 0.247 ± 0.035 | 0.3554 ± 0.0029 | 0.231 ± 0.04 | 0.3883 ± 0.0012 | 0.202 ± 0.0019 | 0.226 ± 0.019 | 0.387 ± 0.035 |
| FLIFVVIGGVGL | 0.2837 ± 0.0028 | 0.259 ± 0.0043 | 0.395 ± 0.016 | 0.281 ± 0.027 | 0.466 ± 0.013 | 0.2268 ± 0.0012 | 0.276 ± 0.023 | 0.435 ± 0.057 |
| FLLELRFTCSYS | 0.431 ± 0.013 | 0.383 ± 0.026 | 0.454 ± 0.021 | 0.407 ± 0.014 | 0.4415 ± 0.00066 | 0.403 ± 0.013 | 0.406 ± 0.023 | 0.4158 ± 0.0028 |
| FLLFFVLRLLPC | 0.316 ± 0.018 | 0.272 ± 0.0094 | 0.293 ± 0.03 | 0.236 ± 0.035 | 0.396 ± 0.016 | 0.255 ± 0.013 | 0.231 ± 0.026 | 0.376 ± 0.011 |
| FLPGEAVFVYCR | 0.4334 ± 0.0032 | 0.619 ± 0.016 | 0.616 ± 0.037 | 0.372 ± 0.026 | 0.627 ± 0.011 | 0.365 ± 0.017 | 0.391 ± 0.028 | 0.64997 ± 0.00056 |

| Sequence | protein stability index (Saccharomyces cerevisiae [1]) | protein stability index (Saccharomyces cerevisiae [2]; [3]) | protein stability index (Saccharomyces cerevisiae [2]; [4]) | protein stability index (Saccharomyces cerevisiae [2]; [5]) | protein stability index (Saccharomyces cerevisiae [2]; [6]) | protein stability index (Saccharomyces cerevisiae [2]; [7]) | protein stability index (Saccharomyces cerevisiae [2]; [8]) | protein stability index (Saccharomyces cerevisiae [2]; [9]) |
| --- | --- | --- | --- | --- | --- | --- | --- | --- |
| FLSVGFSCSFVC | 0.4939 ± 0.00094 | 0.674 ± 0.082 | 0.676 ± 0.034 | 0.599 ± 0.06 | 0.669 ± 0.04 | 0.375 ± 0.024 | 0.4115 ± 0.0017 | 0.609 ± 0.013 |
| FLSVLPLFAFFA | 0.333 ± 0.0081 | 0.581 ± 0.026 | 0.658 ± 0.045 | 0.552 ± 0.025 | 0.68 ± 0.028 | 0.219 ± 0.011 | 0.258 ± 0.014 | 0.4221 ± 0.0032 |
| FLVCTFCRWVWL | 0.233 ± 0.056 | 0.476 ± 0.079 | 0.6 ± 0.039 | 0.448 ± 0.028 | 0.606 ± 0.025 | 0.165 ± 0.023 | 0.162 ± 0.012 | 0.249 ± 0.018 |
| FLVFPLLIQFFL | 0.36 ± 0.019 | 0.2311 ± 0.0022 | 0.303 ± 0.015 | 0.356 ± 0.04 | 0.4346 ± 0.0039 | 0.346 ± 0.0097 | 0.257 ± 0.014 | 0.323 ± 0.014 |
| FPLGAQTWLCLS | 0.318 ± 0.0065 | 0.645 ± 0.084 | 0.714 ± 0.012 | 0.609 ± 0.018 | 0.729 ± 0.022 | 0.199 ± 0.0021 | 0.24 ± 0.032 | 0.466 ± 0.036 |
| FPLPPPGSPPPL | 0.0293 ± 0.02 | 0.68 ± 0.035 | 0.7381 ± 0.0033 | 0.6712 ± 0.0062 | 0.735 ± 0.0085 | 0.682 ± 0.0071 | 0.677 ± 0.011 | 0.707 ± 0.014 |
| FRFFYLPVSVVA | 0.223 ± 0.027 | 0.0275 ± 0.013 | 0.0356 ± 0.0058 | 0.146 ± 0.036 | 0.1275 ± 0.00029 | 0.105 ± 0.02 | 0.142 ± 0.021 | 0.0865 ± 0.013 |
| FRHKLSLGLVIV | 0.507 ± 0.011 | 0.54 ± 0.037 | 0.555 ± 0.073 | 0.396 ± 0.029 | 0.56 ± 0.0072 | 0.347 ± 0.012 | 0.377 ± 0.028 | 0.534 ± 0.014 |
| FRYLRPAFLLLH | 0.0906 ± 0.031 | 0.162 ± 0.071 | 0.255 ± 0.029 | 0.355 ± 0.027 | 0.442 ± 0.0055 | 0.0693 ± 0.00084 | 0.0405 ± 0.019 | 0.0854 ± 0.02 |
| FSALAPTPLLPL | 0.706 ± 0.042 | 0.703 ± 0.055 | 0.7533 ± 0.0046 | 0.672 ± 0.029 | 0.739 ± 0.016 | 0.662 ± 0.029 | 0.671 ± 0.016 | 0.7063 ± 0.0068 |
| FSFCFCFPLSSL | 0.301 ± 0.0084 | 0.5603 ± 0.0013 | 0.683 ± 0.053 | 0.528 ± 0.018 | 0.6285 ± 0.0038 | 0.209 ± 0.011 | 0.248 ± 0.013 | 0.407 ± 0.015 |
| FSPSPVFVTCRV | 0.356 ± 0.01 | 0.247 ± 0.027 | 0.255 ± 0.013 | 0.208 ± 0.047 | 0.343 ± 0.0046 | 0.182 ± 0.0066 | 0.218 ± 0.031 | 0.296 ± 0.011 |
| FTRLDYKRIKIV | 0.102 ± 0.024 | 0.184 ± 0.18 | 0.625 ± 0.15 | 0.62 ± 0.017 | 0.768 ± 0.068 | 0.0655 ± 0.014 | 0.0685 ± 0.03 | 0.0698 ± 0.0013 |
| FVEFCFWCFWVV | 0.426 ± 0.005 | 0.481 ± 0.008 | 0.575 ± 0.032 | 0.407 ± 0.012 | 0.578 ± 0.026 | 0.351 ± 0.022 | 0.361 ± 0.026 | 0.499 ± 0.0043 |
| FVICGMLVHWMV | 0.434 ± 0.01 | 0.479 ± 0.04 | 0.536 ± 0.084 | 0.376 ± 0.028 | 0.58244 ± 0.00049 | 0.321 ± 0.0041 | 0.344 ± 0.02 | 0.5356 ± 0.0023 |
| FVLLCVLEFVAG | 0.27 ± 0.008 | 0.104 ± 0.027 | 0.166 ± 0.011 | 0.173 ± 0.025 | 0.299 ± 0.0013 | 0.131 ± 0.004 | 0.151 ± 0.036 | 0.253 ± 0.0087 |
| FVVFLLFFMLYH | 0.379 ± 0.043 | 0.312 ± 0.052 | 0.428 ± 0.019 | 0.317 ± 0.048 | 0.4366 ± 0.0024 | 0.311 ± 0.004 | 0.305 ± 0.025 | 0.411 ± 0.0096 |
| FVVFYFFLLFGV | 0.3283 ± 0.00033 | 0.318 ± 0.032 | 0.379 ± 0.0099 | 0.298 ± 0.034 | 0.454 ± 0.023 | 0.289 ± 0.006 | 0.264 ± 0.025 | 0.4219 ± 0.0009 |
| FVVVCWFWGGGF | 0.425 ± 0.026 | 0.3213 ± 0.0031 | 0.406 ± 0.0042 | 0.283 ± 0.036 | 0.465 ± 0.013 | 0.257 ± 0.012 | 0.27 ± 0.048 | 0.429 ± 0.021 |
